These results are taken from patent US7785835 (QUEENSLAND UNIVERSITY OF TECHNOLOGY, dated 2010).

Assay [1] deals with T1, vitronectin (UniProt P04004 20-478).
T1 construct: also called VN
The assay can be described thus: [^125I]-IGF-I bound to VN-coated wells (300 ng/well) with 5 ng IGFBP; IGFBP:VN binding read through labelled IGF-I.

Assay [2] addresses T1, vitronectin. The assay can be described thus: [^125I]-IGF-I bound to VN-coated wells with 2 ng of the non-glycosylated IGFBP-3 mutant; IGFBP:VN binding read through labelled IGF-I.

T1 sequence (P04004 20-478 limits assumed): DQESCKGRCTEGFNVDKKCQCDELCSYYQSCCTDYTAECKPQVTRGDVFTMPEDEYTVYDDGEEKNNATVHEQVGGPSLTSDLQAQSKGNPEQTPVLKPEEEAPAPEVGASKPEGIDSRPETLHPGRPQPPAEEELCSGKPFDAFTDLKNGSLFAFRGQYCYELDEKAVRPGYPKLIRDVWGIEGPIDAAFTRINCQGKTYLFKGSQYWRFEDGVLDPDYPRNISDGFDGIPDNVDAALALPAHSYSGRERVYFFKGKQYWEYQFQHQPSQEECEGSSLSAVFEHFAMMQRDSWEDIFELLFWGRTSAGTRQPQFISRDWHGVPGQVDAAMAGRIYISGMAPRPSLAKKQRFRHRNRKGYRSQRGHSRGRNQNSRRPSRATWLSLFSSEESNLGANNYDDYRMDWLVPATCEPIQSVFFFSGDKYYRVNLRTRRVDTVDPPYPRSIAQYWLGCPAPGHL

B1: recombinant IGFBP-4 produced in mammalian cells (other, UniProt P22692 22-258, looked up)
chain: DEAIHCPPCSEEKLARCRPPVGCEELVREPGCGCCATCALGLGMPCGVYTPRCGSGLRCYPPRGVEKPLHTLMHGQGVCMELAEIEAIQESLQPSDKDEGDHPNNSFSPCSAHDRRCLQKHFAKIRDRSTSGGKMKVNGAPREDARPVPQGSCQSELHRALERLAASQSRTHEDLYIIPIPNCDRNGNFHPKQCHPALDGQRGKCWCVDRKTGVKLPGGLEPKGELDCHQLADSFRE
Take B1: the “fold increase in binding of labelled IGF-I to VN-coated wells against wells without IGFBP” value in assay [1] was about 3.8 fold.

B2: recombinant IGFBP-2 produced in mammalian cells (other, UniProt P18065 36-325, looked up)
chain: AEVLFRCPPCTPERLAACGPPPVAPPAAVAAVAGGARMPCAELVREPGCGCCSVCARLEGEACGVYTPRCGQGLRCYPHPGSELPLQALVMGEGTCEKRRDAEYGASPEQVADNGDDHSEGGLVENHVDSTMNMLGGGGSAGRKPLKSGMKELAVFREKVTEQHRQMGKGGKHHLGLEEPKKLRPPPARTPCQQELDQVLERISTMRLPDERGPLEHLYSLHIPNCDKHGLYNLKQCKMSLNGQRGECWCVNPNTGKLIQGAPTIRGDPECHLFYNEQQEARGVHTQRMQ
For B2, in assay [1], the “fold increase in binding of labelled IGF-I to VN-coated wells against wells without IGFBP” value is about 2.8 fold.

B3: IGFBP-3 glycosylation mutant (Non-gly IGFBP-3) (other, UniProt P17936 28-291, looked up)
chain: GASSAGLGPVVRCEPCDARALAQCAPPPAVCAELVREPGCGCCLTCALSEGQPCGIYTERCGSGLRCQPSPDEARPLQALLDGRGLCVAASAVSRLRAYLLPAPPAPGAASESEEDRSAGSVESPSVSSTHRVSDPKFHPLHSKIIIIKKGHAKDSQRYKVDYESQSTDTQAFSSESKRETEYGPCRREMEDTLNHLKFLNVLSPRGVHIPNCDKKGFYKKKQCRPSKGRKRGFCWCVDKYGQPLPGYTTKGKEDVHCYSMQSK
modifications: non-glycosylated (glycosylation sites mutated)
notes: they probably count on mature IGFBP-3; also called non-glycosylated IGFBP-3 mutant; mutant IGFBP-3
Take B3: the “fold increase in binding of labelled IGF-I to VN-coated wells” value in assay [2] was determined as 20 fold.
